Results reported in patent publication US20130209454A1.

Tests used:
Assay in all cases: cell-based or functional assay
[1] = molecular target: HIV-1 Env of strain 1056_10_TA11_1826 (HIV-1)
[2] = molecular target: HIV-1 strain T250-4 envelope (gp120) (HIV-1)
[3] = molecular target: HIV-1 Env of strain AC10.0.29 (HIV-1)
[4] = molecular target: HIV-1 strain 211-9 envelope (gp120) (HIV-1)
[5] = molecular target: HIV-1 Env of strain 6535.3 (HIV-1)
[6] = molecular target: HIV-1 Env of strain C2101.c01 (HIV-1)
[7] = molecular target: HIV-1 Env of strain 6480.v4.c25 (HIV-1)
[8] = molecular target: HIV-1 strain 62357_14_D3_4589 envelope (gp120) (HIV-1)
[9] = molecular target: HIV-1 Env of strain 0330.v4.c3 (HIV-1)
[10] = molecular target: HIV-1 strain T255-34 envelope (gp120) (HIV-1)
[11] = molecular target: HIV-1 strain Du422.1 envelope (gp120) (HIV-1)
[12] = molecular target: HIV-1 Env of strain TROJO4551.58 (HIV-1)
[13] = molecular target: HIV-1 strain P1981_C5_3 envelope (gp120) (HIV-1)
[14] = molecular target: HIV-1 strain CNE17 envelope (gp120) (HIV-1)
[15] = molecular target: HIV-1 Env of strain CNE21 (HIV-1)
[16] = molecular target: HIV-1 Env of strain C1080.c03 (HIV-1)
[17] = molecular target: HIV-1 Env of strain CNE20 (HIV-1)
[18] = molecular target: HIV-1 strain 3817.v2.c59 envelope (gp120) (HIV-1)
[19] = molecular target: HIV-1 strain CNE21 envelope (gp120) (HIV-1)
[20] = molecular target: HIV-1 strain 0330.v4.c3 envelope (gp120) (HIV-1)
[21] = molecular target: HIV-1 strain 231966.c02 envelope (gp120) (HIV-1)
[22] = molecular target: HIV-1 Env of strain 928-28 (HIV-1)
[23] = molecular target: HIV-1 Env of strain X1193_c1 (HIV-1)
[24] = molecular target: HIV-1 strain CNE53 envelope (gp120) (HIV-1)
[25] = molecular target: HIV-1 strain 1054_07_TC4_1499 envelope (gp120) (HIV-1)
[26] = molecular target: HIV-1 Env of strain Du156.12 (HIV-1)
[27] = molecular target: HIV-1 Env of strain 3301.v1.c24 (HIV-1)
[28] = molecular target: HIV-1 Env of strain Ce0682_E4 (HIV-1)
[29] = molecular target: HIV-1 strain Du156.12 envelope (gp120) (HIV-1)
[30] = molecular target: HIV-1 Env of strain T250-4 (HIV-1)
[31] = molecular target: HIV-1 Env of strain 0815.v3.c3 (HIV-1)
[32] = molecular target: HIV-1 Env of strain Du422.1 (HIV-1)
[33] = molecular target: HIV-1 Env of strain 211-9 (HIV-1)
[34] = molecular target: HIV-1 Env of strain C3347.c11 (HIV-1)
[35] = molecular target: HIV-1 strain Ce2060_G9 envelope (gp120) (HIV-1)
[36] = molecular target: HIV-1 strain TRO.11 envelope (gp120) (HIV-1)
[37] = molecular target: HIV-1 strain REJO4541.67 envelope (gp120) (HIV-1)
[38] = molecular target: HIV-1 Env of strain 231966.c02 (HIV-1)
[39] = molecular target: HIV-1 strain CNE30 envelope (gp120) (HIV-1)
[40] = molecular target: HIV-1 strain 89-F1_2_25 envelope (gp120) (HIV-1)
[41] = molecular target: HIV-1 strain CAP210.2.00.E8 envelope (gp120) (HIV-1)
[42] = molecular target: HIV-1 Env of strain 231965.c01 (HIV-1)
[43] = molecular target: HIV-1 Env of strain ZM249M.PL1 (HIV-1)
[44] = molecular target: HIV-1 Env of strain P1981_C5_3 (HIV-1)
[45] = molecular target: HIV-1 Env of strain ZM247v1(Rev-) (HIV-1)
[46] = molecular target: HIV-1 strain CNE58 envelope (gp120) (HIV-1)
[47] = molecular target: HIV-1 Env of strain CNE53 (HIV-1)
[48] = molecular target: HIV-1 strain WEAU_d15_410_787 envelope (gp120) (HIV-1)
[49] = molecular target: HIV-1 strain 620345.c01 envelope (gp120) (HIV-1)
[50] = molecular target: HIV-1 Env of strain 1054_07_TC4_1499 (HIV-1)

B1: NIH45-46^G54F IgG (antibody, name in Kabat numbering, V domains shown)
VH: QVRLSQSGGQMKKPGESMRLSCRASGYEFLNCPINWIRLAPGRRPEWMGWLKPRFGAVNYARKFQGRVTMTRDVYSDTAFLELRSLTSDDTAVYFCTRGKYCTARDYYNWDFEHWGRGAPVTVSS
VL: EIVLTQSPATLSLSPGETAIISCRTSQSGSLAWYQQRPGQAPRLVIYSGSTRAAGIPDRFSGSRWGADYNLSISNLESGDFGVYYCQQYEFFGQGTKVQVDI
B1 showed a neutralization IC50 [1] of 0.064 µg/mL, a neutralization IC80 [2] of over 50 µg/mL and a neutralization IC50 [3] of 0.24 µg/mL. It also gave a neutralization IC80 [4] of over 50 µg/mL, a neutralization IC50 [5] of 0.07 µg/mL and a neutralization IC50 [6] of 0.11 µg/mL. The neutralization IC50 [7] was 0.014 µg/mL, the neutralization IC80 [8] was 0.14 µg/mL and the neutralization IC50 [9] was 0.04 µg/mL. For the same binder, the neutralization IC80 [10] was 0.198 µg/mL, the neutralization IC80 [11] was over 50 µg/mL and the neutralization IC50 [12] was 0.03 µg/mL. The neutralization IC80 [13] was 0.11 µg/mL, the neutralization IC80 [14] was 0.287 µg/mL and the neutralization IC50 [15] was 0.12 µg/mL. For the same binder, the neutralization IC50 [16] was 0.36 µg/mL, the neutralization IC50 [17] was 0.53 µg/mL and the neutralization IC80 [18] was over 50 µg/mL. The neutralization IC80 [19] was 0.66 µg/mL, the neutralization IC80 [20] was 0.13 µg/mL and the neutralization IC80 [21] was 0.24 µg/mL. It also gave a neutralization IC50 [22] of 0.11 µg/mL, a neutralization IC50 [23] of under 0.001 µg/mL and a neutralization IC80 [24] of 0.024 µg/mL. It also gave a neutralization IC80 [25] of 0.283 µg/mL, a neutralization IC50 [26] of under 0.001 µg/mL and a neutralization IC50 [27] of 0.001 µg/mL. For the same binder, the neutralization IC50 [28] was 0.011 µg/mL, the neutralization IC80 [29] was 0.019 µg/mL and the neutralization IC50 [30] was over 50 µg/mL. The neutralization IC50 [31] was under 0.001 µg/mL, the neutralization IC50 [32] was over 50 µg/mL and the neutralization IC50 [33] was over 50 µg/mL. For the same binder, the neutralization IC50 [34] was 0.015 µg/mL, the neutralization IC80 [35] was 0.085 µg/mL and the neutralization IC80 [36] was 0.3 µg/mL. It also gave a neutralization IC80 [37] of 0.028 µg/mL, a neutralization IC50 [38] of 0.06 µg/mL and a neutralization IC80 [39] of 0.348 µg/mL. It also gave a neutralization IC80 [40] of over 50 µg/mL, a neutralization IC80 [41] of over 50 µg/mL and a neutralization IC50 [42] of 0.022 µg/mL. It also gave a neutralization IC50 [43] of 0.004 µg/mL, a neutralization IC50 [44] of 0.03 µg/mL and a neutralization IC50 [45] of 0.28 µg/mL. It also gave a neutralization IC80 [46] of 0.11 µg/mL, a neutralization IC50 [47] of 0.005 µg/mL and a neutralization IC80 [48] of 0.004 µg/mL. It also gave a neutralization IC80 [49] of over 50 µg/mL and a neutralization IC50 [50] of 0.076 µg/mL.
